Read-outs that look alike come from different tables or passages of the source. Blank lines part the entries; values can stand above or below the molecule they belong to.
How the values were obtained:
[1] = target: wild type TSHR expressed in CHO cells (human) (UniProt P16473); assay: cell-based or functional assay
[2] = target: TSHR with Asp232 mutated to Ala expressed in CHO cells (human) (UniProt P16473); assay: cell-based or functional assay
[3] = target: wild type TSHR expressed in CHO cells (human) (UniProt P16473); assay: cell-based or functional assay; remark: listed apart in the source
[4] = target: TSHR with Arg274 mutated to Ala, expressed in CHO cells (human) (UniProt P16473); assay: cell-based or functional assay
wild type TSHR (human) = wild type TSHR (human) (UniProt P16473); assay: cell-based or functional assay
[5] = target: TSHR with Tyr206 mutated to Ala (human) (UniProt P16473); assay: cell-based or functional assay
[6] = target: TSHR with Arg255 mutated to Asp expressed in CHO cells (human) (UniProt P16473); assay: cell-based or functional assay
[7] = target: wild type TSHR expressed in CHO cells (human) (UniProt P16473); assay: cell-based or functional assay; remark: listed apart in the source
[8] = target: wild type TSHR expressed in CHO cells (human) (UniProt P16473); assay: cell-based or functional assay; remark: listed apart in the source
[9] = target: TSHR with His105 mutated to Ala (expressed in CHO cells) (human) (UniProt P16473); assay: cell-based or functional assay
[10] = target: full length wild type human TSHR (human) (UniProt P16473); assay: TSHR260-AP bridge ELISA, wild type TSHR on wells; IgG at 1 µg/mL in HBD
[11] = target: full length wild type human TSHR (human) (UniProt P16473); assay: TSHR260-AP bridge ELISA, wild type TSHR on wells; IgG at 0.005 µg/mL in HBD
[12] = target: TSHR260-alkaline phosphatase (TSHR260-AP) (human) (UniProt P05187); assay: TSHR260-AP bridge ELISA, full length TSHR on wells; 0.005 µg/mL, diluted in HBD
[13] = target: full length human TSHR with mutation Arg255 Asp (human) (UniProt P16473); assay: TSHR260-AP bridge ELISA, Arg255 Asp TSHR on wells; IgG at 10 µg/mL in HBD
[14] = target: human TSH receptor (full length) coated on ELISA plate wells (human) (UniProt P16473); assay: TSH-biotin binding inhibition ELISA, TSHR coated wells; 0.01 µg/mL in assay buffer + 100 µg/mL 5B3 IgG
[15] = target: full length human TSHR with mutation Arg255 Asp (human) (UniProt P16473); assay: TSHR260-AP bridge ELISA, Arg255 Asp TSHR on wells; IgG at 1 µg/mL in HBD
[16] = target: full length wild type human TSHR (human) (UniProt P16473); assay: TSHR260-AP bridge ELISA, wild type TSHR on wells; IgG at 0.01 µg/mL in HBD
[17] = target: full length wild type human TSHR (human) (UniProt P16473); assay: TSHR260-AP bridge ELISA, wild type TSHR on wells; IgG at 0.1 µg/mL in HBD
[18] = target: full length human TSHR with mutation Arg255 Asp (human) (UniProt P16473); assay: TSHR260-AP bridge ELISA, Arg255 Asp TSHR on wells; IgG at 0.01 µg/mL in HBD
[19] = target: thyroid stimulating hormone receptor (full length human TSHR) (human) (UniProt P16473); assay: ELISA, inhibition of TSH-biotin binding to TSHR coated wells; 100 µg/mL, diluted in HBD serum pool
[20] = target: human thyroid stimulating hormone receptor (TSHR), full length (human) (UniProt P16473); assay: 125I-K1-70 Fab (competitor) binding to TSHR coated tubes; test sample 10 µg/mL in assay buffer
[21] = target: TSHR260-alkaline phosphatase (TSHR260-AP) (human) (UniProt P05187); assay: TSHR260-AP bridge ELISA, full length TSHR on wells; 100 µg/mL, diluted in assay buffer
[22] = target: thyroid stimulating hormone receptor (TSHR), full length, coated on tubes (human) (UniProt P16473); assay: inhibition of 125I-TSH binding, TSHR coated tubes; antibody 10 µg/mL in assay buffer
[23] = target: human thyroid stimulating hormone receptor (TSHR), full length (human) (UniProt P16473); assay: 125I-K1-70 Fab (competitor) binding to TSHR coated tubes; test sample 100 µg/mL in assay buffer
[24] = target: human thyroid stimulating hormone receptor (TSHR), full length (human) (UniProt P16473); assay: 125I-K1-70 Fab (competitor) binding to TSHR coated tubes; test sample 1 µg/mL in HBD serum
[25] = target: human thyroid stimulating hormone receptor (TSHR), full length (human) (UniProt P16473); assay: 125I-K1-70 Fab (competitor) binding to TSHR coated tubes; test sample 0.1 µg/mL in HBD serum

% inhibition of TSH stimulation; TSH (2), run at the end of assay [1]: 0%
% inhibition of TSH stimulation; TSH (2), run at the end of assay [2]: 0%
Mutated/wild type (%) of cyclic AMP produced; TSH 3 ng/mL [2]: 70%
Mutated/wild type (%) of cyclic AMP produced; TSH (2) 3 ng/mL, run at the end of assay [2]: 76%
% inhibition of TSH stimulation; TSH (2) 3 ng/mL, run at the end of assay [3]: 0%
Cyclic AMP produced; TSH 3 ng/mL [3]: 97.1 pmol/mL
Cyclic AMP produced; TSH (2) 3 ng/mL, run at the end of assay [3]: 109 pmol/mL
% inhibition of TSH stimulation; TSH (2) 3 ng/mL, run at the end of assay [4]: 0%
Cyclic AMP produced; TSH 3 ng/mL [4]: 99.2 pmol/mL
Cyclic AMP produced; TSH (2) 3 ng/mL, run at the end of assay [4]: 100 pmol/mL
Mutated/wild type (%) of cyclic AMP produced; TSH 3 ng/mL [4]: 102%
Mutated/wild type (%) of cyclic AMP produced; TSH (2) 3 ng/mL, run at the end of assay [4]: 92%
Cyclic AMP produced (pmol/mL), TSH 3 ng/mL, wild type TSHR (wild type TSHR (human)): 92.2 pmol/mL
Cyclic AMP produced (pmol/mL), TSH (2) 3 ng/mL run at the end of assay, wild type TSHR (wild type TSHR (human)): 108 pmol/mL
% inhibition of TSH stimulation, TSH (2) run at the end of assay, mutated TSHR [5]: 16%
Cyclic AMP produced (pmol/mL), TSH 3 ng/mL, mutated TSHR [5]: 82.9 pmol/mL
Cyclic AMP produced (pmol/mL), TSH (2) 3 ng/mL run at the end of assay, mutated TSHR [5]: 69.5 pmol/mL
Mutated/wild type (%) of cyclic AMP produced; TSH 3 ng/mL [5]: 90%
Mutated/wild type (%) of cyclic AMP produced; TSH (2) 3 ng/mL, run at the end of assay [5]: 64%
% inhibition of TSH stimulation; TSH (2) control [6]: 13%
Cyclic AMP produced; TSH 3 ng/mL alone [6]: 57.8 pmol/mL
Cyclic AMP produced; TSH (2) [6]: 50.2 pmol/mL
Mutated/wild type (%) of cyclic AMP produced; TSH 3 ng/mL alone [6]: 87%
Mutated/wild type (%) of cyclic AMP produced; TSH (2) [6]: 77%
% inhibition of TSH stimulation; TSH (2) control [7]: 2%
Cyclic AMP produced; TSH 3 ng/mL alone [7]: 66.5 pmol/mL
Cyclic AMP produced; TSH (2) [7]: 64.8 pmol/mL
% inhibition of TSH stimulation; TSH (2), run at the end of assay [8]: 0%
Cyclic AMP produced; TSH 3 ng/mL alone [8]: 93.6 pmol/mL
Cyclic AMP produced; TSH (2) 3 ng/mL, run at the end of assay [8]: 117 pmol/mL
% inhibition of TSH stimulation; TSH (2), run at the end of assay [9]: 11%
Cyclic AMP produced; TSH 3 ng/mL alone [9]: 65.9 pmol/mL
Cyclic AMP produced; TSH (2) 3 ng/mL, run at the end of assay [9]: 58.5 pmol/mL
Mutated/wild type (%) of cyclic AMP produced; TSH 3 ng/mL alone [9]: 70%
Mutated/wild type (%) of cyclic AMP produced; TSH (2) 3 ng/mL, run at the end of assay [9]: 50%
Molecule: TSH (ligand)

Mean absorbance at 405 nm (absorbance at 405 nm) [10]: 1.17
Mean absorbance at 405 nm (absorbance at 405 nm) [11]: 0.032
Mean absorbance at 405 nm (absorbance at 405 nm) [12]: 0.045
Mean absorbance at 405 nm (absorbance at 405 nm) [13]: 0.551
% inhibition of TSH-biotin binding [14]: 12.9%
Mean absorbance at 405 nm (absorbance at 405 nm) [15]: 0.34
Mean absorbance at 405 nm (absorbance at 405 nm) [16]: 0.064
Mean absorbance at 405 nm (absorbance at 405 nm) [17]: 0.599
Mean absorbance at 405 nm (absorbance at 405 nm) [18]: -0.002
Molecule: M22 IgG (antibody)

Inhibition of binding (%) [19]: 37.1%
Inhibition of binding (%) [20]: 80.4%
Mean absorbance at 405 nm (absorbance at 405 nm) [21]: 0.669
Mean absorbance at 405 nm (absorbance at 405 nm) [12]: 0.02
% inhibition of TSH-biotin binding [14]: 20.7%
Inhibition of binding (%) [22]: 40.5%
Inhibition of binding (%) [23]: 93.3%
Inhibition of binding (%) [24]: 8.1%
Inhibition of binding (%) [25]: 6%
B1: 5C9 IgG (antibody, from another filing, V domains shown)
VH: EVQLVESGGGLIQPGGSLRLSCAASGFTVSSNYMSWVRQAPGKGLEWVSVTYSGGSTSYADSVKGRFTISRDNSKNTLYLQMNSLRAEDTAVYYCARGGRYCSSISCYARSGCDYWGQGTLVTVSS
VL: AIQMTQSPSSLSASVGDRVTITCRASQSISNYLNWYQQKPGKAPKLLIYAASSLQSGVPSRFSGSGSGTDFTLTISSLQPEDFATYYCQQSYSSPSTTFGQGTKLEIK
